{"source": "paper doi:10.1101/2025.03.21.644603", "about": "“Oligomerization enables the selective targeting of intrinsically disordered regions by small molecules” (bioRxiv, 2025)", "molecular_target": "the molecule itself", "test": "dynamic light scattering; one purified protein in solution; NR ADs at 2 mg/mL (AR AD also 35 µM), Tau-5* at 200 to 500 µM; 5 °C; 20 mM sodium phosphate pH 7.4, 1 mM TCEP, 0.5% DMSO-d6; percent of monomer against higher-order species; also with increasing EPI-001"}
{"protein": "activation domain of the estrogen receptor alpha (ERɑ) (domain or fragment, UniProt P03372 1-184, looked up, also called ERɑ AD; ERɑ (1-184 aa); source: E. coli Rosetta (DE3), pDEST17, purified (inclusion bodies in urea, HisTrap, tag cleavage, SEC); not shown: His-tag, N-terminal, cleaved) MTMTLHTKASGMALLHQIQGNELEPLNRPQLKIPLERPLGEVYLDSSKPAVYNYPEGAAYEFNAAAAANAQVYGQTGLPYGPGSEAAAFGSNGLGGFPPLNSVSPSPLMLLHPPPQLSPFLQPHGQQVPYYLENEPSGYTVREAGPPAFYRPNSDNRRQGGRERLASTNDKGSMAMESAKETRY", "values": [{"measurement": "binding result", "result": "binds"}]}
{"protein": "activation domain of the glucocorticoid receptor (GR) (domain or fragment, UniProt P04150 1-420, looked up, also called GR AD; GR (1-420 aa); source: E. coli Rosetta (DE3), pDEST17, purified (inclusion bodies in urea, HisTrap, tag cleavage, SEC); not shown: His-tag, N-terminal, cleaved) MDSKESLTPGREENPSSVLAQERGDVMDFYKTLRGGATVKVSASSPSLAVASQSDSKQRRLLVDFPKGSVSNAQQPDLSKAVSLSMGLYMGETETKVMGNDLGFPQQGQISLSSGETDLKLLEESIANLNRSTSVPENPKSSASTAVSAAPTEKEFPKTHSDVSSEQQHLKGQTGTNGGNVKLYTTDQSTFDILQDLEFSSGSPGKETNESPWRSDLLIDENCLLSPLAGEDDSFLLEGNSNEDCKPLILPDTKPKIKDNGDLVLSSPSNVTLPQVKTEKEDFIELCTPGVIKQEKLGTVYCQASFPGANIIGNKMSAISVHGVSTSGGQMYHYDMNTASLSQQQDQKPIFNVIPPIPVGSENWNRCQGSGDDNLTSLGTLNFPGRTVFSNGYSSPSMRPDVSSPPSSSSTATTGPPPKL", "values": [{"measurement": "binding result", "result": "binds"}]}
{"protein": "activation domain of the mineralocorticoid receptor (MR) (domain or fragment, UniProt P08235 1-602, looked up, also called MR AD; MR (1-602 aa); source: E. coli Rosetta (DE3), pDEST17, purified (inclusion bodies in urea, HisTrap, tag cleavage, SEC); not shown: His-tag, N-terminal, cleaved) METKGYHSLPEGLDMERRWGQVSQAVERSSLGPTERTDENNYMEIVNVSCVSGAIPNNSTQGSSKEKQELLPCLQQDNNRPGILTSDIKTELESKELSATVAESMGLYMDSVRDADYSYEQQNQQGSMSPAKIYQNVEQLVKFYKGNGHRPSTLSCVNTPLRSFMSDSGSSVNGGVMRAVVKSPIMCHEKSPSVCSPLNMTSSVCSPAGINSVSSTTASFGSFPVHSPITQGTPLTCSPNVENRGSRSHSPAHASNVGSPLSSPLSSMKSSISSPPSHCSVKSPVSSPNNVTLRSSVSSPANINNSRCSVSSPSNTNNRSTLSSPAASTVGSICSPVNNAFSYTASGTSAGSSTLRDVVPSPDTQEKGAQEVPFPKTEEVESAISNGVTGQLNIVQYIKPEPDGAFSSSCLGGNSKINSDSSFSVPIKQESTKHSCSGTSFKGNPTVNPFPFMDGSYFSFMDDKDYYSLSGILGPPVPGFDGNCEGSGFPVGIKQEPDDGSYYPEASIPSSAIVGVNSGGQSFHYRIGAQGTISLSRSARDQSFQHLSSFPPVNTLVESWKSHGDLSSRRSDGYPVLEYIPENVSSSTLRSVSTGSSRPSKI", "values": [{"measurement": "binding result", "result": "binds"}]}
{"protein": "activation domain of the progesterone receptor (PR) (domain or fragment, UniProt P06401 1-566, looked up, also called PR AD; PR (1-566 aa); source: E. coli Rosetta (DE3), pDEST17, purified (inclusion bodies in urea, HisTrap, tag cleavage, SEC); not shown: His-tag, N-terminal, cleaved) MTELKAKGPRAPHVAGGPPSPEVGSPLLCRPAAGPFPGSQTSDTLPEVSAIPISLDGLLFPRPCQGQDPSDEKTQDQQSLSDVEGAYSRAEATRGAGGSSSSPPEKDSGLLDSVLDTLLAPSGPGQSQPSPPACEVTSSWCLFGPELPEDPPAAPATQRVLSPLMSRSGCKVGDSSGTAAAHKVLPRGLSPARQLLLPASESPHWSGAPVKPSPQAAAVEVEEEDGSESEESAGPLLKGKPRALGGAAAGGGAAAVPPGAAAGGVALVPKEDSRFSAPRVALVEQDAPMAPGRSPLATTVMDFIHVPILPLNHALLAARTRQLLEDESYDGGAGAASAFAPPRSSPCASSTPVAVGDFPDCAYPPDAEPKDDAYPLYSDFQPPALKIKEEEEGAEASARSPRSYLVAGANPAAFPDFPLGPPPPLPPRATPSRPGEAAVTAAPASASVSSASSSGSTLECILYKAEGAPPQQGPFAPPPCKAPGASGCLLPRDGLPSTSASAAAAGAAPALYPALGLNGLPQLGYQAAVLKEGLPQVYPPYLNYLRPDSEASQSPQYSFESLPQKI", "values": [{"measurement": "binding result", "result": "binds"}]}
